Legend:
hGIPr (C3) = target: T1, hGIPr (C3) (Homo sapiens, UniProt P48546); assay: BSA-cAMP assay, second human GIPr cell line hGIPr (C3); format: cell-based; settings: second human GIPr cell line, STDEV or N in the line below, read-out: cAMP activity hGIPr (C3) (EC50)
T1 construct: expressed in transfected cells
T1 sequence (P48546 22-466): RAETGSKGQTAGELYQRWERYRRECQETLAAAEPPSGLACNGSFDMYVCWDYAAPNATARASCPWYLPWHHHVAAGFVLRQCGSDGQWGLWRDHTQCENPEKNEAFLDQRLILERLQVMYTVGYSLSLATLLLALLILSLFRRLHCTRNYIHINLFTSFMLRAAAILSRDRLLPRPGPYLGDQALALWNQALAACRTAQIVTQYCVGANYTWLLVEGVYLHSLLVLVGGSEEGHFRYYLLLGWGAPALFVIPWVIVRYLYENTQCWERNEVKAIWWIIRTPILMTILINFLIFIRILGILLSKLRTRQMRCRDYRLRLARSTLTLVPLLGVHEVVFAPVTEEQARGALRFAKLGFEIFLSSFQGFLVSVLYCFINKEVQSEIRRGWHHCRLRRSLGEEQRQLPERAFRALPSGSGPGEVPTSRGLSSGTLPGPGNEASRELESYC
Experimental: For human GIPr, two different lines were used, shown as “hGIPr” and “hGIPr (C3)” in Table 11. Peptide activation of these various receptors results in downstream production of cAMP second messenger that can be measured in a functional activity assay.
One basic cAMP assays was performed, differing in the medium used for the assay, the “BSA-cAMP assay”:
BSA-based assay medium: 0.1% bovine serum albumin (BSA) in
Hanks Balanced Salt Solution (GIBCO or Sigma), containing 0.5 mM IBMX (Sigma #17018);
In certain aspects, the assay can also be carried out in medium supplemented with serum albumin that corresponds to the receptor being tested, e.g., human serum albumin for testing cAMP activity at hGIPr or hGLP-1r, rat serum albumin for testing cAMP activity at rGIPr or rGLP-1r, and so on. […]
cAMP levels were measured using a commercially available cAMP dynamic 2 HTRF kit (Cisbio, Cat #62AM4PEJ), following the two step protocol as per manufacturer's recommendations. […] Plates were incubated at room temperature for one hour and then read on an Envision (Perkin Elmer) using excitation wavelength of 320 nm and emission wavelengths of 620 nm & 665 nm. Data was transformed to % Delta F as described in manufacturer's guidelines and then transformed to percent activation of maximal native agonist response and analysed by 4-parameter logistic fit to determine EC50 values. […]

rat GIP receptor (rGIPr) = target: T2, rat GIP receptor (rGIPr) (Rattus norvegicus, UniProt P43219); assay: BSA-cAMP assay, cells expressing rat GIP receptor; format: cell-based; settings: BSA-cAMP assay; read-out: cAMP activity rGIPr (EC50)
T2 construct: expressed in transfected cells; host or cells: HEK293s or CHO cells
T2 sequence (P43219 19-455): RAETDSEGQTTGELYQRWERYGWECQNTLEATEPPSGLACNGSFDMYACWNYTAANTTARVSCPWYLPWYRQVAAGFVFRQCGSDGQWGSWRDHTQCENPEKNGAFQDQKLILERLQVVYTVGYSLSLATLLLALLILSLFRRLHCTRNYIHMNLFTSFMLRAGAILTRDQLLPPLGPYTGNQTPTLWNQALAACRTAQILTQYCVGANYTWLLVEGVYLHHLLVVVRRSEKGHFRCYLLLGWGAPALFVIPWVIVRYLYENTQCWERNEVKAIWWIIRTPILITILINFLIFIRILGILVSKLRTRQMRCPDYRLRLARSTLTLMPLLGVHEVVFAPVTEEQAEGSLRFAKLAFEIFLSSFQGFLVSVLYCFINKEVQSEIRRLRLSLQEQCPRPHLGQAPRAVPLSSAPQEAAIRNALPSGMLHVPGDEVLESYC
Method in brief: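 EC50 is the midpoint of an unconstrained 4-parameter logistic fit to HTRF cAMP data, expressed as percent of maximal native agonist response, from two separate occasions. Rodent (mouse, rat) GLP-1R- or GIPR-expressing cells were incubated with compound 30 min at room temperature in 0.1% BSA medium, in duplicate.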

B1: IP018 (protein)
chain: YSEGTFISDYSIAMDKIHQQDFVNWLLAQKAAAGGSGSTASSGSGSATGGGGAATHTCPPCPAPEF
modifications: /note=“Description of Artificial Sequence Synthetic Peptide-linker-hinge polypeptide”
Which results are given for B1?
EC50 (hGIPr (C3)): 800 pM; EC50 (rat GIP receptor (rGIPr)): 7.6 pM

Reference: patent publication US20160185837A1 (Medimmune Limited, priority 2013, published 2016)
